Assay results reported in patent publication US20150203577A1 (Chugai, published 2015).
Where a chain is given by its changes, count along the chain named.

T1: mouse FcγRII extracellular domain with C-terminal His tag (mouse, UniProt P08101 30-210)
T1 construct: Made on the basis of NCBI NP-034317.1; also called mFcγRII; mFcgRII
T1 sequence: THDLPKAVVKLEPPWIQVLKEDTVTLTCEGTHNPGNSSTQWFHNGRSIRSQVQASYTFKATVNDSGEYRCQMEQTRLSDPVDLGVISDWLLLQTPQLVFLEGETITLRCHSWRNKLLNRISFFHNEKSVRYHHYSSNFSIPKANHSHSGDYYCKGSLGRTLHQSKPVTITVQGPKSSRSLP

T2: mouse FcγRIII extracellular domain with C-terminal His tag (mouse, UniProt P08508 31-215)
T2 construct: Made on the basis of NCBI NP-034318.2; also called mFcγRIII; mFcgRIII
T2 chain: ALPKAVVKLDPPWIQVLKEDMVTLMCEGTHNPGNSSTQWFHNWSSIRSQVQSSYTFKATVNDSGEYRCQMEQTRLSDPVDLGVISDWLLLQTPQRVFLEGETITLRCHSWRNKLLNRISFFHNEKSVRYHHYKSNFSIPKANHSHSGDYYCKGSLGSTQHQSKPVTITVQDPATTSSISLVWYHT

T3: mouse FcγRII (mouse, UniProt P08101 30-210)
T3 construct: Extracellular domain with C-terminal His tag; also called mFcγRII; mFcgRII
T3 sequence: T1 sequence

T4: mouse FcγRIII (mouse, UniProt P08508 31-215)
T4 construct: Extracellular domain with C-terminal His tag; also called mFcγRIII; mFcgRIII
T4 chain: T2 chain

T5: mouse FcγRIII (mouse, UniProt P08508 31-215)
T5 construct: also called mFcγRIII; mFcgRIII
T5 chain: T2 chain

B1: H237-MB436/MRAL-k0 (antibody, mouse IgG1, kappa)
heavy: QVQLQESGPGLVKPSETLSLTCAVSGHSISHDHAWSWVRQPPGEGLEWIGFISYSGITNYNPSLQGRVTISRDNSKNTLYLQMNSLRAEDTAVYYCARSLARTTAMDYWGEGTLVTVSSAKTTPPSVYPLAPGSAAQTNSMVTLGCLVKGYFPEPVTVTWNSGSLSSGVHTFPAVLQSDLYTLSSSVTVPSSTWPSETVTCNVAHPASSTKVDKKIVPRDCGCKPCICPTYEVEDVFIFPPKPKDVLTITLTPKVTCVVVDISKDDPEVQFSWFVDDVEVHTAQTQPREEQFNSTFRSVSELPIMHQDWLNGKEFKCRVNSAAFPAPIEKTISKTKGRPKAPQVYTIPPPKEQMAKDKVSLTCMITDFFPEDITVEWQWNGQPAENYKNTQPIMDTDGSYFVYSKLNVQKSNWEAGNTFTCSVLHEGLHNHHTEKSLSHSPGK
light: not shown
notes: copies: 2 + 2
B2: H237-MB437/MRAL-k0 (antibody, mouse IgG1, kappa)
heavy: B1 heavy with P229Q
light: not shown
notes: copies: 2 + 2
B3: H237-MB434/MRAL-k0 (antibody, mouse IgG1, kappa)
heavy: B1 heavy with P229D
light: not shown
notes: copies: 2 + 2
B4: H237-MB438/MRAL-k0 (antibody, mouse IgG1, kappa)
heavy: B1 heavy with P229T
light: not shown
notes: copies: 2 + 2
B5: H237-MB435/MRAL-k0 (antibody, mouse IgG1, kappa)
heavy: B1 heavy with P229I
light: not shown
notes: copies: 2 + 2
B6: MB750 (antibody, mouse IgG1, kappa)
heavy: B1 heavy with P229E, T230P, Y231N, D235L, A322D
light: not shown
notes: CH name; VH H237 + CH, L chain MRAL-k0; copies: 2 + 2
B7: MB748 (antibody, mouse IgG1, kappa)
heavy: B1 heavy with P229E, T230P, Y231N, D235L, S263A
light: not shown
notes: as for B6
B8: MB753 (antibody, mouse IgG1, kappa)
heavy: B1 heavy with P229E, T230P, Y231N, D235L, S294M
light: not shown
notes: as for B6
B9: MB749 (antibody, mouse IgG1, kappa)
heavy: B1 heavy with P229E, T230P, Y231N, D235L, Q291L
light: not shown
notes: as for B6
B10: MB758 (antibody, mouse IgG1, kappa)
heavy: B1 heavy with P229E, T230P, Y231N, D235L, S294M, K330R
light: not shown
notes: as for B6
B11: MB756 (antibody, mouse IgG1, kappa)
heavy: B1 heavy with P229E, T230P, Y231N, D235L, S294L, K330R
light: not shown
notes: as for B6
B12: MB759 (antibody, mouse IgG1, kappa)
heavy: B1 heavy with P229E, T230P, Y231N, D235L, N320D, K330R
light: not shown
notes: as for B6
B13: MB754 (antibody, mouse IgG1, kappa)
heavy: B1 heavy with P229E, T230P, Y231N, D235L, N320D
light: not shown
notes: as for B6
B14: MB751 (antibody, mouse IgG1, kappa)
heavy: B1 heavy with P229E, T230P, Y231N, D235L, K330R
light: not shown
notes: as for B6
B15: MB752 (antibody, mouse IgG1, kappa)
heavy: B1 heavy with P229E, T230P, Y231N, D235L, S294L
light: not shown
notes: as for B6
B16: MB757 (antibody, mouse IgG1, kappa)
heavy: B1 heavy with P229E, T230P, Y231N, D235L, S294M, N320D
light: not shown
notes: as for B6
B17: MB755 (antibody, mouse IgG1, kappa)
heavy: B1 heavy with P229E, T230P, Y231N, D235L, S294L, N320D
light: not shown
notes: as for B6
B18: H237-MB636/MRAL-k0 (antibody, mouse IgG1, kappa)
heavy: B1 heavy with P229E, T230V, D235N
light: not shown
notes: mouse IgG1 CH variant; copies: 2 + 2
B19: H237-MB642/MRAL-k0 (antibody, mouse IgG1, kappa)
heavy: B1 heavy with P229E, T230D, D235Y
light: not shown
notes: as for B18
B20: H237-MB657/MRAL-k0 (antibody, mouse IgG1, kappa)
heavy: B1 heavy with P229E, T230P, Y231N, D235F
light: not shown
notes: as for B18

Target: T1, mouse FcγRII extracellular domain with …
Assay: SPR Biacore T200

Row | Binder | relative mFcγRII-binding activity (mIgG1 = 1) | Kd
1 | B1 | 151 | 
2 | B2 | 198 | 
3 | B3 | 257 | 0.818 nM
4 | B4 | 283 | 0.742 nM
5 | B5 | 146 | 

Target: T2, mouse FcγRIII extracellular domain with …
Assay: SPR Biacore T200

Row | Binder | relative mFcγRIII-binding activity (mIgG1 = 1) | Kd
6 | B1 | 8.4 | 
7 | B2 | 11.5 | 
8 | B3 | 15.5 | 18.3 nM
9 | B4 | 15.7 | 17.9 nM
10 | B5 | 8.7 | 

Target: T1, mouse FcγRII extracellular domain with …
Assay: SPR Biacore T200; KD mFcγRIII / KD mFcγRII

Row | Binder | relative I/A (mFcγRII selectivity) (mIgG1 = 1) | I/A (mFcγRII selectivity)
11 | B1 | 18 | 
12 | B2 | 17.3 | 
13 | B3 | 16.7 | 22.3
14 | B4 | 18 | 24.1
15 | B5 | 16.8 | 

Target: T3, mouse FcγRII
Assay: SPR (Biacore T200); KD of H237-MB630/MRAL-k0 / KD of variant
Text: (§1) The antibody H chain variable region used was the variable region H237 (SEQ ID NO: 1) of the H chain VH3-IgG1 of the anti-IL-6 receptor antibody Fv4-IgG1 described in WO2009/125825. The antibody L chain commonly used was the L chain MRAL-k0 (SEQ ID NO: 2) of the anti-IL-6 receptor antibody tocilizumab. […] These variants were expressed and purified by the method of Reference Example 1 and evaluated for their binding to mFcγRII and mFcγRIII by the method of Reference Example 2 using Biacore T200.
(§2) Each altered antibody was analyzed for its interaction with each Fcγ receptor prepared above using Biacore T100 (GE Healthcare Japan Corp.), Biacore T200 (GE Healthcare Japan Corp.), Biacore A100, or Biacore 4000. The running buffer used was HBS-EP+ (GE Healthcare Japan Corp.). The assay temperature was set to 25° C. The sensor chips used were chips prepared by immobilizing Protein L (ACTIGEN or BioVision) onto Series S Sensor Chip CM5 (GE Healthcare Japan Corp.) or Series S Sensor Chip CM4 (GE Healthcare Japan Corp.) by the amine coupling method.
(§3) In order to calculate the KD value of each altered antibody for FcγR, kinetic analysis was conducted according to the following method: first, the antibody of interest was captured onto any of these chips and allowed to interact with mFcγR diluted with a running buffer. For the obtained sensorgram, the assay results were globally fit into the 1:1 Langmuir binding model using Biacore Evaluation Software to calculate an association rate constant ka (L/mol/s) and a dissociation rate constant kd (1/s). From these values, the dissociation constant KD (mol/L) was calculated.

Row | Binder | Relative mFcγRII-binding activity (MB630 = 1)
16 | B6 | 1.77 fold
17 | B7 | 0.7 fold
18 | B8 | 0.34 fold
19 | B9 | 1.52 fold
20 | B10 | 0.59 fold
21 | B11 | 0.64 fold
22 | B12 | 2.03 fold
23 | B13 | 1.26 fold
24 | B14 | 1.53 fold
25 | B15 | 0.36 fold
26 | B16 | 0.46 fold
27 | B17 | 0.45 fold

Target: T4, mouse FcγRIII
Assay: as above
Text: as §1, §2, §3

Row | Binder | Relative mFcγRIII-binding activity (MB630 = 1)
28 | B6 | 2.06 fold
29 | B7 | 0.7 fold
30 | B8 | 0.34 fold
31 | B9 | 1.96 fold
32 | B10 | 0.69 fold
33 | B11 | 1.09 fold
34 | B12 | 2.25 fold
35 | B13 | 1.28 fold
36 | B14 | 1.63 fold
37 | B15 | 0.44 fold
38 | B16 | 0.45 fold
39 | B17 | 0.58 fold

Target: T3, mouse FcγRII
Assay: SPR (Biacore T200); KD of H237-mIgG1/MRAL-k0 / KD of variant
Text: as §1, §2

Row | Binder | relative mFcγRII-binding activity (mIgG1 = 1)
40 | B6 | 29.4 fold
41 | B7 | 11.7 fold
42 | B8 | 5.7 fold
43 | B9 | 25.3 fold
44 | B10 | 9.8 fold
45 | B11 | 10.6 fold
46 | B12 | 33.8 fold
47 | B13 | 21 fold
48 | B14 | 25.4 fold
49 | B15 | 6 fold
50 | B16 | 7.6 fold
51 | B17 | 7.6 fold

Target: T4, mouse FcγRIII
Assay: as above
Text: as §1, §2

Row | Binder | relative mFcγRIII-binding activity (mIgG1 = 1)
52 | B6 | 0.4 fold
53 | B7 | 0.14 fold
54 | B8 | 0.07 fold
55 | B9 | 0.38 fold
56 | B10 | 0.13 fold
57 | B11 | 0.21 fold
58 | B12 | 0.44 fold
59 | B13 | 0.25 fold
60 | B14 | 0.32 fold
61 | B15 | 0.09 fold
62 | B16 | 0.09 fold
63 | B17 | 0.11 fold

Target: T5, mouse FcγRIII
Assay: SPR (Biacore), antibody captured on Protein L, mFcγR as analyte
Procedure: as §2, §3

Row | Binder | relative mFcγRIII-binding activity (mIgG1 = 1)
64 | B18 | 0.17 fold
65 | B19 | 0.1 fold
66 | B20 | 0.09 fold
